# Laboratory results taken from IntAct's records for PubMed 20925060.
# B1: Chaperonin GroEL 2 (Mycobacterium tuberculosis (strain ATCC 25618 / P9WPE7 (parent)
# chain: MAKTIAYDEEARRGLERGLNALADAVKVTLGPKGRNVVLEKKWGAPTITNDGVSIAKEIELEDPYEKIGAELVKEVAKKTDDVAGDGTTTATVLAQALVREGLRNVAAGANPLGLKRGIEKAVEKVTETLLKGAKEVETKEQIAATAAISAGDQSIGDLIAEAMDKVGNEGVITVEESNTFGLQLELTEGMRFDKGYISGYFVTDPERQEAVLEDPYILLVSSKVSTVKDLLPLLEKVIGAGKPLLIIAEDVEGEALSTLVVNKIRGTFKSVAVKAPGFGDRRKAMLQDMAILTGGQVISEEVGLTLENADLSLLGKARKVVVTKDETTIVEGAGDTDAIAGRVAQIRQEIENSDSDYDREKLQERLAKLAGGVAVIKAGAATEVELKERKHRIEDAVRNAKAAVEEGIVAGGGVTLLQAAPTLDELKLEGDEATGANIVKVALEAPLKQIAFNSGLEPGVVAEKVRNLPAGHGLNAQTGVYEDLLAAGVADPVKVTRSALQNAASIAGLFLTTEAVVADKPEKEKASVPGGGDMGGMDF
# partner: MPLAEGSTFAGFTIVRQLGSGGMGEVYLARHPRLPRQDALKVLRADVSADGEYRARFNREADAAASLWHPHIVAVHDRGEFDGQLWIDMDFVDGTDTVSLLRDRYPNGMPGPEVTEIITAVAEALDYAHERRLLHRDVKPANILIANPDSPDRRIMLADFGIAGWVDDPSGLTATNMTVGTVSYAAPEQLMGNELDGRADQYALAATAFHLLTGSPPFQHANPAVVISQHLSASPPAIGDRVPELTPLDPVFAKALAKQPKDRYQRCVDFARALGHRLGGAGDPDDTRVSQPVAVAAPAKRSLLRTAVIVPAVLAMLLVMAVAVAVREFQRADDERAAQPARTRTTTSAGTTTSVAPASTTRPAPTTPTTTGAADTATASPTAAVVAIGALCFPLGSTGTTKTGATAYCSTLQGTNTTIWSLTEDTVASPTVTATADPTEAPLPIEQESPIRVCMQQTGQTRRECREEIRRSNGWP
# B2: Alpha-crystallin (Mycobacterium tuberculosis (strain ATCC 25618 / P9WMK1 (parent)
# chain: MATTLPVQRHPRSLFPEFSELFAAFPSFAGLRPTFDTRLMRLEDEMKEGRYEVRAELPGVDPDKDVDIMVRDGQLTIKAERTEQKDFDGRSEFAYGSFVRTVSLPVGADEDDIKATYDKGILTVSVAVSEGKPTEKHIQIRSTN
# partner: B1 partner
# Variants of: B1
# Settings: with pknf_myctu pknF
row,Variant,effect of a mutation on the interaction
1,T127A,decreasing interaction
2,T90A,decreasing interaction
3,T92A,decreasing interaction

# Variants of: B2
# Settings: with pknf_myctu pknF
row,Variant,effect of a mutation on the interaction
1,MATTLPVQRHPRSLFPEFAELFAAFPSFAGLRPTFDTRLMRLEDEMKEGRYEVRAELPGVDPDKDVDIMVRDGQLTIKAERTEQKDFDGRSEFAYGSFVRTVSLPVGADEDDIKATYDKGILTVSVAVSEGKPTEKHIQIRSTN [S19A],decreasing interaction
2,MATALPVQRHPRSLFPEFSELFAAFPSFAGLRPTFDTRLMRLEDEMKEGRYEVRAELPGVDPDKDVDIMVRDGQLTIKAERTEQKDFDGRSEFAYGSFVRTVSLPVGADEDDIKATYDKGILTVSVAVSEGKPTEKHIQIRSTN [T4A],decreasing interaction
3,MATTLPVQRHPRSLFPEFSELFAAFPSFAGLRPTFDTRLMRLEDEMKEGRYEVRAELPGVDPDKDVDIMVRDGQLTIKAERTEQKDFDGRSEFAYGSFVRTVSLPVGADEDDIKATYDKGILTVSVAVSEGKPAEKHIQIRSTN [T134A],decreasing interaction
4,MATTLPVQRHPRSLFPEFSELFAAFPAFAGLRPTFDTRLMRLEDEMKEGRYEVRAELPGVDPDKDVDIMVRDGQLTIKAERTEQKDFDGRSEFAYGSFVRTVSLPVGADEDDIKATYDKGILTVSVAVSEGKPTEKHIQIRSTN [S27A],decreasing interaction
